Assay [1] addresses T1, soluble RAGE (sRAGE), the soluble, extracellular portion of the human Receptor for Advanced Glycated … (human, UniProt Q15109 23-339). Nature of the assay: ELISA saturation curves with Scatchard analysis (FIGS. 10 and 11), 500 and 100 ng/well S-100b coated, sRAGE about 23-470 nM or 5-76 nM; low affinity site, told for both experiments. Background: In an ELISA, binding on a coated surface is turned into a signal by an enzyme label.

The target of assay [2] is T1, soluble RAGE (sRAGE), the soluble, …. Description: ELISA saturation curve with Scatchard analysis (FIG. 8), 50 ng/well S-100b coated, sRAGE about 0.3-10 nM; high affinity component.
For assay [3] the target is unchanged. Nature of the assay: ELISA saturation curve with Scatchard analysis (FIG. 9), 100 ng/well S-100b coated, sRAGE about 0.3-10 nM; high affinity component.

T1 sequence (Q15109 23-339 limits assumed): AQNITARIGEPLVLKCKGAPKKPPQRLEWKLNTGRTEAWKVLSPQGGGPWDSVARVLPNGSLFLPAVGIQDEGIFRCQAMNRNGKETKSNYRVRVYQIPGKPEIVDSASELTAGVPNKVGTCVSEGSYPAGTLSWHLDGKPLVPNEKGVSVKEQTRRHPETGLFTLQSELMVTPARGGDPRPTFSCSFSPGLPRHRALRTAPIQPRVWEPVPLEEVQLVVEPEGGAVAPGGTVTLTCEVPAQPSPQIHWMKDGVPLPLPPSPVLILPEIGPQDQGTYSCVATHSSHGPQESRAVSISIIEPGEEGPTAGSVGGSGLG

B1: S-100b (ligand)
chain: MSELEKAMVALIDVFHQYSGREGDKHKLKKSELKELINNELSHFLEEIKEQEVVDKVMETLDNDGDGECDFQEFMAFVAMVTTACHEFFEHE
By Kd is commonly meant the free concentration of one partner at which half of the binding sites on the other are occupied at equilibrium, for simple one-to-one binding. Regarding B1, the Kd in assay [1] was approximately 60 nM; in assay [2] it was approximately 6 nM; in assay [3], approximately 2 nM.

These data come from patent US6908741 (TRANSTECH PHARMA, dated 2005).
